Measured values from PMC9304055, “Biochemical analysis of novel NAA10 variants suggests distinct pathogenic mechanisms involving impaired protein N-terminal acetylation” (Human Genetics, 2022).

Biological target: T1, NAA10 A6P-V5 (human, UniProt P41227-1 1-235, A6P)
T1 construct: NAA10, human, patient variant c.16G>C p.(A6P), made by site-directed mutagenesis of pcDNA3.1/NAA10-WT-V5; Same construct as m1 with the variant found in a patient; also called NAA10 p.(A6P); c.16G>C p.(Ala6Pro); source: HeLa, transfected, in lysate
T1 sequence (looked up): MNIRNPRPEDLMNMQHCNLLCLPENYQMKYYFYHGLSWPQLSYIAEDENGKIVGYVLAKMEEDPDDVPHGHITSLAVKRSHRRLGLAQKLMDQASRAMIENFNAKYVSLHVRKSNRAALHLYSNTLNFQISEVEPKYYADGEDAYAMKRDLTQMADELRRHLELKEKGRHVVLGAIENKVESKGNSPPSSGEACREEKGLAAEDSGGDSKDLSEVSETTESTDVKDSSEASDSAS
Test: co-IP; anti-V5 immunoprecipitation (Dynabeads Protein G) of NAA10-V5 from lysates of transfected HeLa cells; lysis buffer 50 mM Tris-HCl pH 8.0, 150 mM NaCl, 5 mM EDTA, 0.5% NP-40, 4 °C; co-precipitated NAA15 detected by Western blot
Details: partners not purified

B1: NAA15 (natural protein, human (endogenous in HeLa), UniProt Q9BXJ9 1-866, looked up)
chain: MPAVSLPPKENALFKRILRCYEHKQYRNGLKFCKQILSNPKFAEHGETLAMKGLTLNCLGKKEEAYELVRRGLRNDLKSHVCWHVYGLLQRSDKKYDEAIKCYRNALKWDKDNLQILRDLSLLQIQMRDLEGYRETRYQLLQLRPAQRASWIGYAIAYHLLEDYEMAAKILEEFRKTQQTSPDKVDYEYSELLLYQNQVLREAGLYREALEHLCTYEKQICDKLAVEETKGELLLQLCRLEDAADVYRGLQERNPENWAYYKGLEKALKPANMLERLKIYEEAWTKYPRGLVPRRLPLNFLSGEKFKECLDKFLRMNFSKGCPPVFNTLRSLYKDKEKVAIIEELVVGYETSLKSCRLFNPNDDGKEEPPTTLLWVQYYLAQHYDKIGQPSIALEYINTAIESTPTLIELFLVKAKIYKHAGNIKEAARWMDEAQALDTADRFINSKCAKYMLKANLIKEAEEMCSKFTREGTSAVENLNEMQCMWFQTECAQAYKAMNKFGEALKKCHEIERHFIEITDDQFDFHTYCMRKITLRSYVDLLKLEDVLRQHPFYFKAARIAIEIYLKLHDNPLTDENKEHEADTANMSDKELKKLRNKQRRAQKKAQIEEEKKNAEKEKQQRNQKKKKDDDDEEIGGPKEELIPEKLAKVETPLEEAIKFLTPLKNLVKNKIETHLFAFEIYFRKEKFLLMLQSVKRAFAIDSSHPWLHECMIRLFNTAVCESKDLSDTVRTVLKQEMNRLFGATNPKNFNETFLKRNSDSLPHRLSAAKMVYYLDPSSQKRAIELATTLDESLTNRNLQTCMEVLEALYDGSLGDCKEAAEIYRANCHKLFPYALAFMPPGYEEDMKITVNGDSSAEAEELANEI
notes: NAA15, large auxiliary subunit of the NatA complex, endogenous in HeLa cells, detected with NAA15 rabbit polyclonal antibody (previously called anti-NATH); also called auxiliary subunit of NatA; NATH; source: endogenous, HeLa lysate
- fold less NAA15 co-immunoprecipitated than with NAA10 WT-V5: 5 fold
